Test results from patent US20140087995A1 (published 2014).
Numbered stars: 1 amine (or outer) side, 2 acyl side, 3 side chain; on linkers, the order of the positions; unused ones are H or OH. Bridge positions count the residues as written; N and C are the ends. Side chains are listed from the residue outwards. Ends that are not written are not given here. * marks the point of attachment. C20 diacid = O=C(O)CCCCCCCCCCCCCCCCCCC(=O)*; γGlu = O=C(O)[C@H](CCC(=O)[*:2])N[*:1]; AEEA = NCCOCCOCC(=O)O

T1: human calcitonin receptor (human, UniProt P30988 25-474)
T1 construct: whole, on cells; also called hCTR; hCT
T1 sequence (looked up): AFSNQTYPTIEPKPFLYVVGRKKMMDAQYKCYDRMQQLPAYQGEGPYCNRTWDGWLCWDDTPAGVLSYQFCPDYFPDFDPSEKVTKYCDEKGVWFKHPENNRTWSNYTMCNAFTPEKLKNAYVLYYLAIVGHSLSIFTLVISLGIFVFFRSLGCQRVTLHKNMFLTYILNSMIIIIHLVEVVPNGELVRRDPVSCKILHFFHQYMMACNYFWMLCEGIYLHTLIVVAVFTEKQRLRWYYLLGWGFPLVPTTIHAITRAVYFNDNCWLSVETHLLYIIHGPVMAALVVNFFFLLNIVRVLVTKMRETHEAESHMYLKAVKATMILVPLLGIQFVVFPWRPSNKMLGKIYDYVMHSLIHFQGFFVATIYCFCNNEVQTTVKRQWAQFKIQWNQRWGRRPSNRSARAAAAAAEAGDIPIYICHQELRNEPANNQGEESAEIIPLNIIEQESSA

T2: rat calcitonin receptor (rat, UniProt P32214 25-516)
T2 construct: whole, on cells; also called rCTR; rat calcitonin (a) receptor
T2 sequence (looked up): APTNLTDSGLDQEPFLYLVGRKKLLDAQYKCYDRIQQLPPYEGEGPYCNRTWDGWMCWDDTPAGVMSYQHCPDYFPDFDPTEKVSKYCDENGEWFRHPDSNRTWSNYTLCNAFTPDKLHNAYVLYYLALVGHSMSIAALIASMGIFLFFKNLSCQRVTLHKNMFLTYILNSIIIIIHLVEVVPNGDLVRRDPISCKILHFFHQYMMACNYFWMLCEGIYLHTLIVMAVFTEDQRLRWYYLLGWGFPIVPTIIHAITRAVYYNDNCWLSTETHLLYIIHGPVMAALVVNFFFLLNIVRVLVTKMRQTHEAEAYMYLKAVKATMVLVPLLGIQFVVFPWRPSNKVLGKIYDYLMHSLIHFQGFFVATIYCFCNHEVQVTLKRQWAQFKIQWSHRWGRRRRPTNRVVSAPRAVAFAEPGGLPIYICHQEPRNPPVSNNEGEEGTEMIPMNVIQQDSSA

T3: rat amylin receptor (rat calcitonin receptor + rat RAMP 3) (rat, UniProt P32214 25-516; Q9JJ73 23-147)
T3 construct: whole, on cells; also called rAmylin-R; rat amylin 3(a) receptor
T3 sequence (looked up) 1: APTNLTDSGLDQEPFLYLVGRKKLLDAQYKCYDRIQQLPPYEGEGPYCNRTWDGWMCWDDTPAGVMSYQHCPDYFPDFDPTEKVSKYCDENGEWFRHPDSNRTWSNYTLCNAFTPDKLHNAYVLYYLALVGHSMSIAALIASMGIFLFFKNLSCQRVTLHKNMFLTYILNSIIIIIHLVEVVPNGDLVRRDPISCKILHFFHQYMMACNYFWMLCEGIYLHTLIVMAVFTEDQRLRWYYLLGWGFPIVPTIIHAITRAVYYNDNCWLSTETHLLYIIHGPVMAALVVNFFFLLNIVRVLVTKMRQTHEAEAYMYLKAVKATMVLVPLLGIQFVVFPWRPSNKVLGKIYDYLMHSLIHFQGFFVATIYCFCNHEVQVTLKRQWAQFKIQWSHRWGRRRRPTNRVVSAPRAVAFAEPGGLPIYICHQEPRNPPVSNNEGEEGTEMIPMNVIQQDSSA
T3 sequence (looked up) 2: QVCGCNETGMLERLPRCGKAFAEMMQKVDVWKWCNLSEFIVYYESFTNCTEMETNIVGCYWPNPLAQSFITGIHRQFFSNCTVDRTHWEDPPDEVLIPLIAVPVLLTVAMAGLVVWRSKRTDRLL


Experiments:
[1] = biological target: T1, human calcitonin receptor; assay: ratio of binding IC50s: human calcitonin receptor over human amylin receptor (reference)
Description: The resulting pellet was resuspended, homogenized and centrifuged (20.000 rpm, 15 min) in a buffer containing 20 mM Na-HEPES and 0.1 mM EDTA (pH 7.4, buffer 2). The resulting pellet was resuspended in buffer 2 and protein concentration was measured (BCA protein Assay, Pierce). The homogenate was kept cold during the whole procedure. The membranes were kept at −80° C. until use. The assay was performed in a 384 well Optiplate (PerkinElmer) in a total volume of 40 ul. Membranes were mixed with SPA beads. Final concentration of membranes 35 ng/μL final and SPA beads was 0.05 mg/well. Test-compounds were dissolved in DMSO and further diluted in assay buffer (50 mM Hepes, pH 7.4, 1 mM CaCl2, 5 mM MgCl₂, 0.1% OA and 0.02% Tween20). […] The final mixture was incubated with shaking at 400 rpm for 120 min at 25° C. prior to centrifugation (1500 rpm, 10 min). Samples were analyzed on TopCounter™ (Packard). The IC₅₀ was calculated using (one site binding competition analysis) GraphPad Prism5 as a measure of receptor affinity.
Membranes were prepared in the following way; the cells were rinsed with PBS and incubated with Versene for approximately 5 min before harvesting. The cells were flushed with PBS and the cell-suspension was centrifuged for 5 min at 1000 rpm. Cells were homogenized (Ultrathurrax) in a buffer containing 20 mM Na-HEPES and 10 mM EDTA (pH 7.4) and centrifuged at 20.000 rpm for 15 min. The resulting pellet was resuspended, homogenized and centrifuged (20.000 rpm, 15 min) in a buffer containing 20 mM Na-HEPES and 0.1 mM EDTA (pH 7.4, buffer 2). The resulting pellet was resuspended in buffer 2 and protein concentration was measured (BCA protein Assay, Pierce). The homogenate was kept cold during the whole procedure. The membranes were kept at −80° C. until use. Assay was performed in a 384 well Optiplate (PerkinElmer) in a total volume of 40 ul. Membranes were mixed with SPA beads.

rat calcitonin receptor [2] = biological target: T2, rat calcitonin receptor; assay: SPA competition with 125I-calcitonin, membranes of BHK cells with rat calcitonin receptor (Assay VIII)
rat calcitonin receptor [3] = biological target: T2, rat calcitonin receptor; assay: ratio of binding IC50s: rat calcitonin receptor over rat amylin receptor (reference)
[4] = biological target: T3, rat amylin receptor (rat calcitonin …); assay: SPA competition with 125I-rat amylin, membranes of BHK cells with rat calcitonin receptor + rat RAMP3 (Assay VI)

| Binder | Ratio hCT/hAmylin binding [1] | IC50 (rat calcitonin receptor [2]) [nM] | Ratio rCT/rAmylin binding (rat calcitonin receptor [3]) | IC50 [4] [nM] |
| --- | --- | --- | --- | --- |
| K([AEEA-γGlu-C20 diacid])CNTATCATQRLAHFLRHSSPNFGAIPSSTNVGSNTY-NH2 (disulfide 2-7; N-terminus assumed; SMILES CC[C@H](C)[C@H](NC(=O)[C@H](C)NC(=O)CNC(=O)[C@H](Cc1ccccc1)NC(=O)[C@H](CC(N)=O)NC(=O)[C@@H]1CCCN1C(=O)[C@H](CO)NC(=O)[C@H](CO)NC(=O)[C@H](Cc1c[nH]cn1)NC(=O)[C@H](CCCNC(=N)N)NC(=O)[C@H](CC(C)C)NC(=O)[C@H](Cc1ccccc1)NC(=O)[C@H](Cc1c[nH]cn1)NC(=O)[C@H](C)NC(=O)[C@H](CC(C)C)NC(=O)[C@H](CCCNC(=N)N)NC(=O)[C@H](CCC(N)=O)NC(=O)[C@@H](NC(=O)[C@H](C)NC(=O)[C@@H]1CSSC[C@H](NC(=O)[C@@H](N)CCCCNC(=O)COCCOCCNC(=O)CC[C@H](NC(=O)CCCCCCCCCCCCCCCCCCC(=O)O)C(=O)O)C(=O)N[C@@H](CC(N)=O)C(=O)N[C@@H]([C@@H](C)O)C(=O)N[C@@H](C)C(=O)N[C@@H]([C@@H](C)O)C(=O)N1)[C@@H](C)O)C(=O)N1CCC[C@H]1C(=O)N[C@@H](CO)C(=O)N[C@@H](CO)C(=O)N[C@H](C(=O)N[C@@H](CC(N)=O)C(=O)N[C@H](C(=O)NCC(=O)N[C@@H](CO)C(=O)N[C@@H](CC(N)=O)C(=O)N[C@H](C(=O)N[C@@H](Cc1ccc(O)cc1)C(N)=O)[C@@H](C)O)C(C)C)[C@@H](C)O, synthetic analogue of human amylin; also called compound 69) | 65.3 | 46.8 | 104 | 0.45 |
| K([AEEA-γGlu-C20 diacid])CNTATCATQRLARFLRHSSPNFGAIPSSTNVGSNTY-NH2 (disulfide 2-7; N-terminus assumed; SMILES CC[C@H](C)[C@H](NC(=O)[C@H](C)NC(=O)CNC(=O)[C@H](Cc1ccccc1)NC(=O)[C@H](CC(N)=O)NC(=O)[C@@H]1CCCN1C(=O)[C@H](CO)NC(=O)[C@H](CO)NC(=O)[C@H](Cc1c[nH]cn1)NC(=O)[C@H](CCCNC(=N)N)NC(=O)[C@H](CC(C)C)NC(=O)[C@H](Cc1ccccc1)NC(=O)[C@H](CCCNC(=N)N)NC(=O)[C@H](C)NC(=O)[C@H](CC(C)C)NC(=O)[C@H](CCCNC(=N)N)NC(=O)[C@H](CCC(N)=O)NC(=O)[C@@H](NC(=O)[C@H](C)NC(=O)[C@@H]1CSSC[C@H](NC(=O)[C@@H](N)CCCCNC(=O)COCCOCCNC(=O)CC[C@H](NC(=O)CCCCCCCCCCCCCCCCCCC(=O)O)C(=O)O)C(=O)N[C@@H](CC(N)=O)C(=O)N[C@@H]([C@@H](C)O)C(=O)N[C@@H](C)C(=O)N[C@@H]([C@@H](C)O)C(=O)N1)[C@@H](C)O)C(=O)N1CCC[C@H]1C(=O)N[C@@H](CO)C(=O)N[C@@H](CO)C(=O)N[C@H](C(=O)N[C@@H](CC(N)=O)C(=O)N[C@H](C(=O)NCC(=O)N[C@@H](CO)C(=O)N[C@@H](CC(N)=O)C(=O)N[C@H](C(=O)N[C@@H](Cc1ccc(O)cc1)C(N)=O)[C@@H](C)O)C(C)C)[C@@H](C)O, synthetic analogue of human amylin; also called compound 82) | 140 | 143 | 87 | 1.64 |
| K([AEEA-γGlu-C20 diacid])CNTATCATQRLAAFLRHSSPNFGAIPSSTPVGSNTY-NH2 (disulfide 2-7; N-terminus assumed; SMILES CC[C@H](C)[C@H](NC(=O)[C@H](C)NC(=O)CNC(=O)[C@H](Cc1ccccc1)NC(=O)[C@H](CC(N)=O)NC(=O)[C@@H]1CCCN1C(=O)[C@H](CO)NC(=O)[C@H](CO)NC(=O)[C@H](Cc1c[nH]cn1)NC(=O)[C@H](CCCNC(=N)N)NC(=O)[C@H](CC(C)C)NC(=O)[C@H](Cc1ccccc1)NC(=O)[C@H](C)NC(=O)[C@H](C)NC(=O)[C@H](CC(C)C)NC(=O)[C@H](CCCNC(=N)N)NC(=O)[C@H](CCC(N)=O)NC(=O)[C@@H](NC(=O)[C@H](C)NC(=O)[C@@H]1CSSC[C@H](NC(=O)[C@@H](N)CCCCNC(=O)COCCOCCNC(=O)CC[C@H](NC(=O)CCCCCCCCCCCCCCCCCCC(=O)O)C(=O)O)C(=O)N[C@@H](CC(N)=O)C(=O)N[C@@H]([C@@H](C)O)C(=O)N[C@@H](C)C(=O)N[C@@H]([C@@H](C)O)C(=O)N1)[C@@H](C)O)C(=O)N1CCC[C@H]1C(=O)N[C@@H](CO)C(=O)N[C@@H](CO)C(=O)N[C@H](C(=O)N1CCC[C@H]1C(=O)N[C@H](C(=O)NCC(=O)N[C@@H](CO)C(=O)N[C@@H](CC(N)=O)C(=O)N[C@H](C(=O)N[C@@H](Cc1ccc(O)cc1)C(N)=O)[C@@H](C)O)C(C)C)[C@@H](C)O, synthetic analogue of human amylin; also called compound 72) | 247 | 221 | 259 | 0.851 |
| K([AEEA-γGlu-C20 diacid])CNTATCATQRLARFLRHSSPNFGAIPSSTPVGSNTY-NH2 (disulfide 2-7; N-terminus assumed; SMILES CC[C@H](C)[C@H](NC(=O)[C@H](C)NC(=O)CNC(=O)[C@H](Cc1ccccc1)NC(=O)[C@H](CC(N)=O)NC(=O)[C@@H]1CCCN1C(=O)[C@H](CO)NC(=O)[C@H](CO)NC(=O)[C@H](Cc1c[nH]cn1)NC(=O)[C@H](CCCNC(=N)N)NC(=O)[C@H](CC(C)C)NC(=O)[C@H](Cc1ccccc1)NC(=O)[C@H](CCCNC(=N)N)NC(=O)[C@H](C)NC(=O)[C@H](CC(C)C)NC(=O)[C@H](CCCNC(=N)N)NC(=O)[C@H](CCC(N)=O)NC(=O)[C@@H](NC(=O)[C@H](C)NC(=O)[C@@H]1CSSC[C@H](NC(=O)[C@@H](N)CCCCNC(=O)COCCOCCNC(=O)CC[C@H](NC(=O)CCCCCCCCCCCCCCCCCCC(=O)O)C(=O)O)C(=O)N[C@@H](CC(N)=O)C(=O)N[C@@H]([C@@H](C)O)C(=O)N[C@@H](C)C(=O)N[C@@H]([C@@H](C)O)C(=O)N1)[C@@H](C)O)C(=O)N1CCC[C@H]1C(=O)N[C@@H](CO)C(=O)N[C@@H](CO)C(=O)N[C@H](C(=O)N1CCC[C@H]1C(=O)N[C@H](C(=O)NCC(=O)N[C@@H](CO)C(=O)N[C@@H](CC(N)=O)C(=O)N[C@H](C(=O)N[C@@H](Cc1ccc(O)cc1)C(N)=O)[C@@H](C)O)C(C)C)[C@@H](C)O, synthetic analogue of human amylin; also called compound 64) | 126 | 128 | 64.7 | 1.97 |
